Test results taken from paper PMC13397619.

B1: NLV2 TCR alpha chain (CDR3α only) (parent)
chain: AGPMKTSYDKVI
partner: MLVPMVATV

Variants of: B1
Assay: T-Switch: Jurkat TCRβ−/− cells expressing a CDR3 saturation-mutagenesis library, stained with two peptide-HLA-A*02:01 tetramers (original and novel peptide) plus anti-CD3, FACS-sorted into four gates, gDNA sequenced
Details: with HLA-A*02:01 with peptide … (NLV 3-1, the novel peptide), tetramers 1 µg/mL, 30 min on ice, SP, DP and SW gates expanded about 10 days between rounds ('two to three rounds of selection' in the Methods), gate SW: higher = more of the variant in the gate that binds the novel peptide and not the original one = switched binding. Fold enrichment of the CDR3 variant in one FACS gate of a two-tetramer stain, unresolved parent, parent is a CDR3 fragment, scale: fold enrichment, numbering: sequential-on-construct, sequence starts at 1

Point of comparison: […] (CDR3 as printed); Y8G derived by comparing it with the table's wild-type CDR3 AGPMKTSYDKVI, enrichment 0. Against it:
- […] (CDR3 as printed); T6D derived by comparing it with the table's wild-type CDR3 AGPMKTSYDKVI — the same, 0
- […] (CDR3 as printed); T6E derived by comparing it with the table's wild-type CDR3 AGPMKTSYDKVI — the same, 0
- […] (CDR3 as printed); T6F derived by comparing it with the table's wild-type CDR3 AGPMKTSYDKVI — the same, 0
- […] (CDR3 as printed); T6G derived by comparing it with the table's wild-type CDR3 AGPMKTSYDKVI — the same, 0
- […] (CDR3 as printed); T6H derived by comparing it with the table's wild-type CDR3 AGPMKTSYDKVI — the same, 0
- […] (CDR3 as printed); T6I derived by comparing it with the table's wild-type CDR3 AGPMKTSYDKVI — the same, 0
- […] (CDR3 as printed); T6K derived by comparing it with the table's wild-type CDR3 AGPMKTSYDKVI — higher, 0.282
- […] (CDR3 as printed); T6L derived by comparing it with the table's wild-type CDR3 AGPMKTSYDKVI — the same, 0
- […] (CDR3 as printed); T6M derived by comparing it with the table's wild-type CDR3 AGPMKTSYDKVI — the same, 0
- […] (CDR3 as printed); T6N derived by comparing it with the table's wild-type CDR3 AGPMKTSYDKVI — the same, 0
- […] (CDR3 as printed); T6P derived by comparing it with the table's wild-type CDR3 AGPMKTSYDKVI — the same, 0
- […] (CDR3 as printed); T6Q derived by comparing it with the table's wild-type CDR3 AGPMKTSYDKVI — the same, 0
- […] (CDR3 as printed); T6R derived by comparing it with the table's wild-type CDR3 AGPMKTSYDKVI — the same, 0
- […] (CDR3 as printed); T6S derived by comparing it with the table's wild-type CDR3 AGPMKTSYDKVI — the same, 0
- […] (CDR3 as printed); T6V derived by comparing it with the table's wild-type CDR3 AGPMKTSYDKVI — the same, 0
- […] (CDR3 as printed); T6W derived by comparing it with the table's wild-type CDR3 AGPMKTSYDKVI — the same, 0
- […] (CDR3 as printed); T6Y derived by comparing it with the table's wild-type CDR3 AGPMKTSYDKVI — the same, 0
- […] (CDR3 as printed); V11A derived by comparing it with the table's wild-type CDR3 AGPMKTSYDKVI — the same, 0
- […] (CDR3 as printed); V11C derived by comparing it with the table's wild-type CDR3 AGPMKTSYDKVI — the same, 0
- […] (CDR3 as printed); V11D derived by comparing it with the table's wild-type CDR3 AGPMKTSYDKVI — the same, 0
- […] (CDR3 as printed); V11E derived by comparing it with the table's wild-type CDR3 AGPMKTSYDKVI — the same, 0
- […] (CDR3 as printed); V11F derived by comparing it with the table's wild-type CDR3 AGPMKTSYDKVI — the same, 0
- […] (CDR3 as printed); V11G derived by comparing it with the table's wild-type CDR3 AGPMKTSYDKVI — the same, 0
- […] (CDR3 as printed); V11H derived by comparing it with the table's wild-type CDR3 AGPMKTSYDKVI — the same, 0
- […] (CDR3 as printed); V11I derived by comparing it with the table's wild-type CDR3 AGPMKTSYDKVI — the same, 0
- […] (CDR3 as printed); V11K derived by comparing it with the table's wild-type CDR3 AGPMKTSYDKVI — the same, 0
- […] (CDR3 as printed); V11L derived by comparing it with the table's wild-type CDR3 AGPMKTSYDKVI — the same, 0
- […] (CDR3 as printed); V11M derived by comparing it with the table's wild-type CDR3 AGPMKTSYDKVI — the same, 0
- […] (CDR3 as printed); V11N derived by comparing it with the table's wild-type CDR3 AGPMKTSYDKVI — the same, 0
- […] (CDR3 as printed); V11P derived by comparing it with the table's wild-type CDR3 AGPMKTSYDKVI — the same, 0
- […] (CDR3 as printed); V11Q derived by comparing it with the table's wild-type CDR3 AGPMKTSYDKVI — the same, 0
- […] (CDR3 as printed); V11R derived by comparing it with the table's wild-type CDR3 AGPMKTSYDKVI — the same, 0
- […] (CDR3 as printed); V11S derived by comparing it with the table's wild-type CDR3 AGPMKTSYDKVI — the same, 0
- […] (CDR3 as printed); V11T derived by comparing it with the table's wild-type CDR3 AGPMKTSYDKVI — the same, 0
- […] (CDR3 as printed); V11W derived by comparing it with the table's wild-type CDR3 AGPMKTSYDKVI — the same, 0
- […] (CDR3 as printed); V11Y derived by comparing it with the table's wild-type CDR3 AGPMKTSYDKVI — the same, 0
- […] (CDR3 as printed); Y8A derived by comparing it with the table's wild-type CDR3 AGPMKTSYDKVI — higher, 77.9
- […] (CDR3 as printed); Y8C derived by comparing it with the table's wild-type CDR3 AGPMKTSYDKVI — the same, 0
- […] (CDR3 as printed); Y8D derived by comparing it with the table's wild-type CDR3 AGPMKTSYDKVI — higher, 0.474
- […] (CDR3 as printed); Y8E derived by comparing it with the table's wild-type CDR3 AGPMKTSYDKVI — higher, 52.6
- […] (CDR3 as printed); Y8F derived by comparing it with the table's wild-type CDR3 AGPMKTSYDKVI — the same, 0
- […] (CDR3 as printed); Y8H derived by comparing it with the table's wild-type CDR3 AGPMKTSYDKVI — the same, 0
- […] (CDR3 as printed); Y8I derived by comparing it with the table's wild-type CDR3 AGPMKTSYDKVI — the same, 0
- […] (CDR3 as printed); Y8K derived by comparing it with the table's wild-type CDR3 AGPMKTSYDKVI — the same, 0
- […] (CDR3 as printed); Y8L derived by comparing it with the table's wild-type CDR3 AGPMKTSYDKVI — the same, 0
- […] (CDR3 as printed); Y8M derived by comparing it with the table's wild-type CDR3 AGPMKTSYDKVI — the same, 0
- […] (CDR3 as printed); Y8N derived by comparing it with the table's wild-type CDR3 AGPMKTSYDKVI — the same, 0
- […] (CDR3 as printed); Y8P derived by comparing it with the table's wild-type CDR3 AGPMKTSYDKVI — the same, 0
- […] (CDR3 as printed); Y8Q derived by comparing it with the table's wild-type CDR3 AGPMKTSYDKVI — higher, 27.8
- […] (CDR3 as printed); Y8R derived by comparing it with the table's wild-type CDR3 AGPMKTSYDKVI — the same, 0
- […] (CDR3 as printed); Y8S derived by comparing it with the table's wild-type CDR3 AGPMKTSYDKVI — the same, 0
- […] (CDR3 as printed); Y8T derived by comparing it with the table's wild-type CDR3 AGPMKTSYDKVI — the same, 0
- […] (CDR3 as printed); Y8V derived by comparing it with the table's wild-type CDR3 AGPMKTSYDKVI — the same, 0
- […] (CDR3 as printed); Y8W derived by comparing it with the table's wild-type CDR3 AGPMKTSYDKVI — the same, 0
